B1: ISREx4-promoter: 4 ISRE motifs separated by 20 nucleotides according to SEQ ID NO: 12 (nucleic acid)
DNA: ATCTCTGCGATGAACCTCACAGTTTCGCTTTCTATCTCTGCGATGAACCTCACAGTTTCGCTTTCTATCTCTGCGATGAACCTCACAGTTTCGCTTTCTATCTCTGCGATGAACCTCACAGTTTCGCTTTCTGTGCCTCTTATGATCTGGATCTCGAGCCATGGTCGAGGCCTGTAGGCGTGTACGGTGGGAGGCTTATATAAGCAGAGCTC
modifications: misc_feature 1..212 ISREx4
B2: CXCL9-promoter: CXCL9 promoter according to SEQ ID NO: 23 (nucleic acid, listed as Mus musculus)
DNA: GACACAGACATCTCGTGAAACATCTGGAAAAGGTAGCAGGGAACGGGACAGCAGTAGCTTATGCAACTAATCTAGCAATTACAATGATAGGAAACTGTAGCCACGGTGAGACGAAATGGATTTACCCTCAACAAATTAAGAAGCTTTGACTTGTGAGGAAAGGCAGTTTGAGTCGCCATATAGTGTCATGTCCCACGTGGGAAGTACATCTCCAACCTTCATTGTACAACATTAATATAGTCATTGTATAATCTATTCCACATCCAGGTAGCAACTTTGCCTGGGGGTGGTTTCACATCCCTTACTATAAACTCCCCGTTTATGTGAAATGGAAGTAGAACATGCAGAAATTCCCTGGGATCTGAGAGTAGGGTTTTCCCCAGGACGATCAATTTGTGGTTAGTTTAGTTCTTCTAGGTCAGCTGAGGAGACCAGCCAATCAGAGACGGGAAGGAAAAGGGATTTCCTAAATAAATATGATCCCCAAGAACATGCTCTCTAAAGACATTCTCGGACTTCACTCCAACACAGTGACTCAATAGAACTCAGCTCTGCC
modifications: misc_feature 1..556 CXCL9-promoter
B3: IFN-β-promoter: full length IFN-β-promoter according to SEQ ID NO: 25 (nucleic acid, listed as Mus musculus)
DNA: CCAGGATGTGGGGTTCTCTCCCAAAGGGAGCTATGGCCCATTGATGTGCCATTTCTCTTATAGTACACTATTGTAAGCCCCCTGGGAGCTCACAGAGACCCTCTCCCACCATCCCACTATTTCAAAGGGCAGCAGCTGTGCCATCCTTTCAGGATGAGCAGCTACTCTGCCTGGCTTTTCAGTGGACACTTTGGCTGTTTGAGAGTTCTTTTATCTTCAGGGCTGTCTCCTTTCTGTTCTTCTCTCCTGGATATTTCTCTTCCTTTGCTCCAGCAATTGGTGAAACTGTACAAGATTTTATAAATCCTTAGTTTGTATATATTTTAACCCAGTACATAGCATATAAAATAGCCAGGAGCTTGAATAAAATGAATATTAGAAGCTGTTAGAATAAGAGAAAATGACAGAGGAAAACTGAAAGGGAGAACTGAAAGTGGGAAATTCCTCTGAGGCAGAAAGGACCATCCCTTATAAATAGCACAGGCCATGAAGGAAGATCATTCTCACTGCAGCCTTTGACAGCCTTTGCCTCATCTTGCAGGTAGCAGCCGACACCAGCCTGGCTTCCATC
modifications: misc_feature 1..571 IFNb1-promoter

How the values were obtained:
[1] = test system: HEK293T cells stably expressing hSTINGmut; assay: Luciferase activity under synthetic promoters; format: cell-based, human
From the text: Seven different promoters were generated, namely short STATx4 (4 STAT motifs separated by 6 nucleotides according to SEQ ID NO: 26), IRSF3×4 (4 IRSF3 motifs separated by 20 nucleotides according to SEQ ID NO: 27), short IRSF3×4 (4 IRSF3 motifs separated by 6 nucleotides according to SEQ ID NO: 28), ISREx4 (4 ISRE motifs separated by 20 nucleotides according to SEQ ID NO: 12), short ISREx4 (4 ISRE motifs separated by 6 nucleotides according to SEQ ID NO: 13), NFκBx4 (4 NFκB motifs separated by 20 nucleotides according to SEQ ID NO: 29) and short NFκBx4 (4 NFκB motifs separated by 6 nucleotides according to SEQ ID NO: 30). […] In addition, a plasmid containing the luciferase sequence under the control of the murine IFN-β-promoter (mIFN-β) and a plasmid containing the luciferase sequence under the control of CXCL10-promoter were used as controls. Either MC38 cells or human HEK293T cells, both which stably expressed hSTINGmut as described above (example 1), were transfected with the indicated plasmids using Lipofectamine3000 according to the manufacturers protocol, whereas a negative control was mock-transfected (Basic).

[2] = test system: MC38 cell lines stably expressing hSTINGmut; assay: scIL-12 mRNA and protein expression under STING-activity dependent promoters; format: cell-based, murine; settings: DMXAA 50 μg/mL
From the text: The CXCL9-promoter and the CXCL10-promoter from experiment 2, and a full length IFN-β-promoter (IFN-β according to SEQ ID NO: 25) were used for the following experiment. To this end, lentiviral vectors encoding murine scIL-12 under the control of these three different promoters were constructed. […] After the indicated time points, cells were harvested. The cell lysate was used to measure scIL-12 mRNA expression by qPCR as described before (example 1, experiment 1), whereas the supernatant was used to measure secreted scIL-12 protein in NUNC MaxiSorp flat-bottom 96-well plates using an ELISA assay kit (OptEIA, Mouse IL-12 (p70), BD Biosciences, San Diego, CA USA), following manufacturer's instructions.

[3] = test system: MC38 cell lines stably expressing hSTINGmut; assay: Luciferase activity under chemokine promoters; format: cell-based, murine
Experimental: The CXCL9-promoter (CXCL9 according to SEQ ID NO: 23) and the CXCL10-promoter (CXCL10 according to SEQ ID NO: 24) were used for the following experiment. To this end, lentiviral vectors encoding luciferase under the control of these two different promoters were constructed. […] In addition, the lentiviral vectors encoding the short IFN-β A promoter, the short IFN-β B promoter, the short IFN-β C promoter described in experiment 1 were used as a comparison. […] After another 3 or 6 h, cells were harvested and luciferase activity measured as described in experiment 1.

Row | Molecule | luciferase activity upon DMXAA (inducibility) ([1]; DMXAA 50 μg/mL) | luciferase activity in the absence of DMXAA (leakage) ([1]; vehicle) | scIL-12 mRNA or protein expression upon DMXAA [2] | luciferase activity upon DMXAA ([3]; DMXAA 50 μg/mL, 3 or 6 h, compared to the IFN-β promoters) | luciferase activity in the absence of DMXAA (leaky expression) ([3]; vehicle)
1 | B1 | highest inducibility | undetectable leakage |  |  | 
2 | B2 |  |  | poor | significantly higher luciferase activities | significant luciferase activity
3 | B3 |  |  | poor |  | 
